Test results taken from the DeepSol protein solubility set.

assay: soluble on expression in E. coli; label from the status in PepcDB or PDB records

Sequence	soluble on expression in E. coli
MSVKVAFIRHHNLWIKVDGKEIQITKGEYITGPKWSYDGEWLAYVKGKKQSILELYRLKDGKKVTPFHSEASNYQWSPTENIIAFIFTGTLNTFDVEKKNADFENVSAGVGDYAWYPDGKNFLVSSEAHLLPTGWTGAQLYEVQKDAHMNPHKMKHLYALPNEHDDFLALVASGFKWSPDQKWISFLAVPTASWSADSNTLCLVRADGSRFEKVDQMLLNAQWFQWAPSKNILAYIEGSGRVALENKHLKVKELPALQQNIFTPKGYVDWDFVWKNDRVIIVSRAKEAGIETPPEKRPLPSLYEVDSTSNAQHQITKKTNKQGDYHPIFMKKSNQLIWIRSDRKKADVWLAHKDRKQEKKWIENIDVPAWYYEKWNWGNVISVKEELEHHHHHH	soluble
MSVSGLKAELKFLASIFDKNHERFRIVSWKLDELHCQFLVPQQGSPHSLPPPLTLHCNITESYPSSSPIWFVDSEDPNLTSVLERLEDTKNNNLLRQQLKWLICELCSLYNLPKHLDVEMLDQPLPTGQNGTTEEVTSEEEEEEEEMAEDIEDLDHYEMKEEEPISGKKSEDEGIEKENLAILEKIRKTQRQDHLNGAVSGSVQASDRLMKELRDIYRSQSYKTGIYSVELINDSLYDWHVKLQKVDPDSPLHSDLQILKEKEGIEYILLNFSFKDNFPFDPPFVRVVLPVLSGGYVLGGGALCMELLTKQGWSSAYSIESVIMQINATLVKGKARVQFGANKNQYNLARAQQSYNSIVQIHEKNGWYTPPKEDG	soluble
MSVSKKLFSTAVRGKSWWSHVEMGPPDAILGVTEAFKADSNPKKINLGVGAYRDDQGKPFVLPSVKEAERQVIAANLDKEYAGIVGLPEFTKLSAQLALGENSDVIKNKRIFTTQSISGTGALRIGSEFLSKYAKTKVIYQPTPTWGNHVPIFKFAGVDVKQYRYYDKSTCGFDETGALADIAQIPEGSTILLHACAHNPTGVDPSRDQWKKISDIVKKRNLFVFFDMAYQGFASGDVDNDAFAVRYFVEQGHNIVLSQSFAKNMGLYGERVGAFSVVTSDADEAARVASQVKILIRPLYSNPPVHGARIASRILADPALNKQWLGDVKLMADRIITMRTTLKDLLAKEGSTRNWEHITNQIGMFCFTGINPQQVEKLIKEHSVYLTKDGRISVAGISSNNVAYLAHALHQVTK	not soluble
MSVSLLRGRTVRRVLSVLVVAGLLGAGATGCSNDAGAKTENTVDASPTPTNTPTDGEGDSEGAEEPVEDTPAEPEQRPVPEEPEAMKTGDKAGAIAAATFFVEVIEYDATQPDSRFFSKYAYEECGWCNEYKKTHEQQANSNFSLINTNINLEDIKTASFAGEGSVLWSVPINANVSSHYKSKKDDEVVETEHTLTGNMLVGYRNGQWLLVEGDLLVK	not soluble
MSVSNMPPIDRAEQSTAHEIQQAKVIDLNDRVLNLDNPDDKMISAFANYAVQTENWQQNALQALTSDKKGLTPEKLLVLQDHVLNYNVEVSLVGTLARKIVAAVETLTRS	soluble
MSVTFPSSGCPSFFNIFYEEGIVMKLTIYYDGQFWVGVVEVVDNGKLRAFRHLFGKEPRDSEVLEFVHNQLLNMMAQAEQEGVRLQGRRQKKINPKRLQRQVSKELKNAGVTSKAQEAIKLELEARKQKKKQIMKEQREHVKEQRYMLKKQKAKKKHRGKLEHHHHHH	soluble
MSVVDMSAEKMTKLEENLQRAVALKKTVDRWRNFHIHCMWQTTLDQRRNLFAALRMKDTKEQELALSNKQLLVVRQAALHELFEKEYQQYQQELNQMGKAFYEERL	not soluble
MSYLLALDAGTGSIRAVIFDLNGRQLAVGQAEWKHLSVDNVPGSMEFDLTTNWQLACQCIRQALDAARLSAADIQSVACCSMREGIVLYDRNGEAIWACANVDARASREVAELKEIHDFRFESEVYEVSGQTLALSAMPRLLWLAHHRPDIYRKAATITMISDWLAAKLSGELAVDPSNAGTTGMLDLFSRDWRPALLDMAGLRADMLSPVKETGTLLGAVTEAAAQQSGLRAGTPVVMGGGD	not soluble
MSYQNLVSEAGLTQKLLIHGDKELFQHELKTIFARNWLFLTHDSLIPSPGDYVKAKMGVDEVIVSRQNDGSVRAFLNVCRHRGKTLVHAEAGNAKGFVCGYHGWGYGSNGELQSVPFEKELYGDAIKKKCLGLKEVPRIESFHGFIYGCFDAEAPPLIDYLGDAAWYLEPTFKYSGGLELVGPPGKVVVKANWKSFAENFVGDGYHVGWTHAAALRAGQSVFSSIAGNAKLPPEGAGLQMTSKYGSGMGVFWGYYSGNFSADMIPDLMAFGAAKQEKLAKEIGDVRARIYRSFLNGTIFPNNSFLTGSAAFRVWNPIDENTTEVWTYAFVEKDMPEDLKRRVADAVQRSIGPAGFWESDDNENMETMSQNGKKYQSSNIDQIASLGFGKDVYGDECYPGVVGKSAIGETSYRGFYRAYQAHISSSNWAEFENASRNWHIEHTKTTDR	soluble
MTAFEEFGIIPELSDALSSLNWTLPTAVQSEAIPAILGGADALIAAETGSGKTGAFSLPIAQIVWERRKSAEKSQNSGQKPENSREFQLNREDRDVSLQIDKTGLNCESRVAKEWHGARATAGLYGNGKYYYEVTVTRDGLCRVGWATLSGSLKIGTDFESFGYGGTGKKSFGKKFDDYGTSFTTNDVLGCFLDLDELKIWWSKNGVQFPVAYQIDKKFKTAATCLYPAILCQNSGLGVNFGGSAAFKYPPGTQYVAVAQAEDGNLKWWSAAEQLSIDSSTPLCVILEPTRELVQQTFQNIQTFASVLDSPKIRCVTLAAGENMNQILRTLETGCDIVVGTPSRVFDLIHTGKLATKNLQFVVIDEIDQFLAGKNNCAHQIESIFRVLPLVAQDGTRRQVIACSATLHNFEVCRFADRHMSFPQWIDLKGADCVSADVHHVVCHVDASEDKQWIRQMHQQVHLEDDHVHDGDQIRPGTTDKDTISLGTKILKGIYVVRAIHALQMDKAIVFCRTKQQCDHMEHFLQQNNLSAACLHGDRSAEERQSSLEGFKKGIIRFLVCSDVVARGLDVQGVPFVISVTLPDEKSMYVHRIGRVGRAERMGLSISLVSEYEEKAWYHKCRSRGVNCTNTKDISKGGCTIWLQEKKMLGEIEEHLGATISTVDSDFNVPVDEFDGKVVYGERRTGGANFDTHVLQLASSASQLADLETKMQLEYLNNNRHVFEIHSM	not soluble
MTAFFCTLQDDRIISLDWQEGADIDLIYLAPGRTLPSQKGAVSHVLQGKDLRKGWSIDHGELTVGVSSLAVAVKNANGDVLGAVAVAGLSASVESKIDTIRDTLKETACAIA	not soluble
MTAINFNSIYTTYYRRAFLFTLSYVHNDLVAEDIVSEAIIYLWELSKKQEIPSIEAVLITYIRSKSLNYLKHLQVQENVYQNLTDKGQRELEIRISTLEACDPKEVMSEELRSKVKTLLAGMPEKTRIAFISDRLDGKSHKEIAEELGISVKGVEYHISKAVKLLRDNLKEYAPFLIFFI	not soluble
MTAISCSPRPRYASRMPVLSKTVEVTADAASIMAIVADIERYPEWNEGVKGAWVLARYDDGRPSQVRLDTAVQGIEGTYIHAVYYPGENQIQTVMQQGELFAKQEQLFSVVATGAASLLTVDMDVQVTMPVPEPMVKMLLNNVLEHLAENLKQRAEQLAAS	soluble
MTAQLQSESTSKIVLVTGGAGYIGSHTVVELIENGYDCVVADNLSNSTYDSVARLEVLTKHHIPFYEVDLCDRKGLEKVFKEYKIDSVIHFAGLKAVGESTQIPLRYYHNNILGTVVLLELMQQYNVSKFVFSSSATVYGDATRFPNMIPIPEECPLGPTNPYGHTKYAIENILNDLYNSDKKSWKFAILRYFNPIGAHPSGLIGEDPLGIPNNLLPYMAQVAVGRREKLYIFGDDYDSRDGTPIRDYIHVVDLAKGHIAALQYLEAYNENEGLCREWNLGSGKGSTVFEVYHAFCKASGIDLPYKVTGRRAGDVLNLTAKPDRAKRELKWQTELQVEDSCKDLWKWTTENPFGYQLRGVEARFSAEDMRYDARFVTIGAGTRFQATFANLGASIVDLKVNGQSVVLGYENEEGYLNPDSAYIGATIGRYANRISKGKFSLCNKDYQLTVNNGVNANHSSIGSFHRKRFLGPIIQNPSKDVFTAEYMLIDNEKDTEFPGDLLVTIQYTVNVAQKSLEIVYKGKLTAGEATPINLTNHSYFNLNKPYGDTIEGTEIMVRSKKSVDVDKNMIPTGNIVDREIATFNSTKPTVLGPKNPQFDCCFVVDENAKPSQINTLNNELTLIVKAFHPDSNITLEVLSTEPTYQFYTGDFLSAGYEARQGFAIEPGRYIDAINQENWKDCVTLKNGETYGSKIVYRFS	soluble
